From patent publication US11306156
pKd: −log10 of the molar value. Values belong to the substance of their own block, whether it stands above or below them.

Key:
[1] = target: tissue factor (TF) antigen (UniProt P13726); test: SPR, Fab captured on anti-penta His, TF injected, 1:1 fit
[2] = target: tissue factor (TF) antigen (UniProt P13726); test: SPR; reference wild-type D3H44 Fab
[3] = target: tissue factor (TF) antigen (UniProt P13726); test: SPR (ProteOn XPR36): His-tagged Fab captured on anti-penta-His surface, TF as analyte, 1:1 fit
[4] = target: tissue factor (TF) antigen (UniProt P13726); test: SPR; against wild-type D3H44 Fab
[5] = target: tissue factor (TF) antigen (UniProt P13726); test: SPR (ProteOn), Fab captured on anti-penta His, TF as analyte, 1:1 fit
[6] = target: tissue factor (TF) antigen (UniProt P13726); test: SPR, Fab captured on anti-penta-His, TF as analyte, 1:1 fit
[7] = target: tissue factor (TF) antigen (UniProt P13726); test: SPR, Fab captured by anti-His, TF as analyte

Sequence of tissue factor (TF) antigen (P13726 33-251 limits assumed): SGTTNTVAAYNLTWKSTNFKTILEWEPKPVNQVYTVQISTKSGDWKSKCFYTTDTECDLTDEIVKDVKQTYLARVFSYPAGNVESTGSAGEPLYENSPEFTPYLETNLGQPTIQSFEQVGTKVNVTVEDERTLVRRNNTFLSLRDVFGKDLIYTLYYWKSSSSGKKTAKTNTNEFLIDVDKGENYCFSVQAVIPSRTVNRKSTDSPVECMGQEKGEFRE

Substance: D3H44 Fab heterodimer, H L124R_Q179K / L V133G_Q160E_S176D_T180E
pKd [1]: 9.72
Change in KD with respect to wild type (-(log(KD design) - log(KD wt))) [2]: -0.08

Substance: D3H44 Fab heterodimer, H1 A139G_V190A / L1 L135W_S176L (H1L1 of LCCA set 9056)
Change in KD with respect to wild type (-(log(KD design) - log(KD wt))) [4]: -0.02
pKd [5]: 9.80

Substance: D3H44 Fab heterodimer, H1 L124E_L143D_K145M / L1 Q124K_V133G_S176R_T178K (H1L1 of LCCA set 9178)
Change in KD with respect to wild type (-(log(KD design) - log(KD wt))) [4]: -0.15
pKd [5]: 9.66

Substance: D3H44 Fab heterodimer, H L124R_D146N_Q179K / L V133G_Q160E_S176D_T180E
pKd [1]: 9.77
Change in KD with respect to wild type (-(log(KD design) - log(KD wt))) [2]: -0.04

Substance: D3H44 Fab heterodimer, heavy L124E_L143D_K145T / light Q124K_V133G_S176R_T178R
pKd [7]: 9.80
Change in KD of h1|1 Fab heterodimer with respect to wild type (-(log(KD design) - log(KD wt))) [2]: -0.02

Substance: D3H44 Fab heterodimer, H1 S186K / L1 Q124E_T180E (H1L1 of LCCA set 9862)
Change in KD with respect to wild type (-(log(KD design) - log(KD wt))) [4]: 0.46
pKd [5]: 10.22

Substance: D3H44 Fab heterodimer, H L124R_S186R / L V133G_S176D_T178D_T180E
pKd [1]: 9.77
Change in KD with respect to wild type (-(log(KD design) - log(KD wt))) [2]: -0.04
Change in KD with respect to wild type (-(log(KD design) - log(KD wt))) [6]: -0.04
pKd [6]: 9.77

Substance: D3H44 Fab heterodimer, H1 Q179K / L1 Q124E_Q160E_T180E (H1L1 of LCCA set 9763)
Change in KD with respect to wild type (-(log(KD design) - log(KD wt))) [4]: -0.31
pKd [5]: 9.49

Substance: D3H44 H1L1 Fab heterodimer of LCCA set 9066 (H1 F122C_L124E; L1 Q124C_V133G_S176R)
Change in median values of KD of h1|1 Fab heterodimer compared to wild type (-(log(KD design)-log(KD wt))) [3]: -0.04 log units
pKd [3]: 9.77

Substance: D3H44 Fab heterodimer, heavy L124E_L143E_K145T / light Q124K_V133G_Q160K_S176R
pKd [7]: 9.70
Change in KD of h1|1 Fab heterodimer with respect to wild type (-(log(KD design) - log(KD wt))) [2]: -0.12

The remaining lines, values ahead:

Change in median values of KD of h1|1 Fab heterodimer compared to wild type (-(log(KD design)-log(KD wt))) [3]: 0.1 log units
pKd [3]: 9.92
Substance: D3H44 H1L1 Fab heterodimer of LCCA sets 9101 and 9100 (H1 L124A_Q179K; L1 Q124E_V133W_T180E)

pKd [1]: 9.59
Change in KD with respect to wild type (-(log(KD design) - log(KD wt))) [2]: -0.23
Change in KD with respect to wild type (-(log(KD design) - log(KD wt))) [6]: -0.23
pKd [6]: 9.59
Substance: D3H44 Fab heterodimer, H L124R_S186K / L Q124E_V133G_S176D_T178D_T180E

pKd [7]: 9.66
Change in KD of h2|2 Fab heterodimer with respect to wild type (-(log(KD design) - log(KD wt))) [2]: -0.15
Substance: D3H44 Fab heterodimer, heavy L124R_Q179K / light Q124E_V133G_S176D_T178E_T180E

pKd [7]: 9.55
Change in KD of h1|1 Fab heterodimer with respect to wild type (-(log(KD design) - log(KD wt))) [2]: -0.26
Substance: D3H44 Fab heterodimer, heavy L124E_L143E_K145M / light Q124K_V133G_Q160K_S176R

pKd [7]: 9.72
Change in KD of h1|1 Fab heterodimer with respect to wild type (-(log(KD design) - log(KD wt))) [2]: -0.08
Substance: D3H44 Fab heterodimer, heavy L124E_L143D_K145T / light Q124K_V133G_S176R_T178K

pKd [1]: 9.64
Change in KD with respect to wild type (-(log(KD design) - log(KD wt))) [2]: -0.16
Substance: D3H44 Fab heterodimer, H L124R_Q179K / L V133G_S176D_T178E_T180E

pKd [1]: 9.70
Change in KD with respect to wild type (-(log(KD design) - log(KD wt))) [2]: -0.12
Change in KD with respect to wild type (-(log(KD design) - log(KD wt))) [6]: -0.12
pKd [6]: 9.70
Substance: D3H44 Fab heterodimer, H L124E_L143E_K145T / L Q124K_V133G_Q160K_S176R

pKd [7]: 9.59
Change in KD of h2|2 Fab heterodimer with respect to wild type (-(log(KD design) - log(KD wt))) [2]: -0.21
Substance: D3H44 Fab heterodimer, heavy L124R_S186R / light Q124E_V133G_S176D_T178D_T180E

Change in median values of KD of h1|1 Fab heterodimer compared to wild type (-(log(KD design)-log(KD wt))) [3]: 0.1 log units
pKd [3]: 9.89
Substance: D3H44 H1L1 Fab heterodimer of LCCA sets 9786 and 9785 (H1 Q179K; L1 Q124E_T178E_T180E)

Change in median values of KD of h1|1 Fab heterodimer compared to wild type (-(log(KD design)-log(KD wt))) [3]: 0.04 log units
pKd [3]: 9.85
Substance: D3H44 H1L1 Fab heterodimer of LCCA set 9060 (H1 A139W_L143E_K145T_Q179E; L1 F116A_Q124R_L135V_T178R)

pKd [7]: 9.62
Change in KD of h1|1 Fab heterodimer with respect to wild type (-(log(KD design) - log(KD wt))) [2]: -0.19
Substance: D3H44 Fab heterodimer, heavy L124E_L143E_K145M / light Q124K_V133G_S176R_T178K

Change in KD with respect to wild type (-(log(KD design) - log(KD wt))) [4]: 0.06
pKd [5]: 9.85
Substance: D3H44 Fab heterodimer, H1 A139G_F174V_V190A / L1 S131T_L135F_S176F_T178F (H1L1 of LCCA set 9051)
